According to patent publication US20100021384A1 (INSTITUT PASTEUR, published 2010):
Substitutions are numbered along the chain they refer to.

B1: VHH-E9 (VHH)
VHH: DVQLQVSGGGSVQPGGSLRLSCAASGFTFSNYAMYWLRQAPGKGIEWVSRIGPGGSHTEYADSVKGRFTISRDNAKNTLSLQMNSLKPEDTAVYYCAITQQGSGRGQGTQVTVSS
notes: Alpaca VHH selected by ribosome display against human GFAP; expressed in E. coli periplasm from pET22 with a His-tag and purified by IMAC; same molecule; also called anti-GFAP VHH-E9; native VHH-E9; not shown: His-tag (His6) from pET22 expression
B2: VHH-E3 (VHH)
VHH: B1 VHH with S25P, T69A, V93A, Q107R
notes: Alpaca VHH selected by ribosome display against human GFAP; expressed in E. coli periplasm from pET22 with a His-tag and purified by IMAC; also called anti-GFAP VHH-E3; not shown: His-tag from pET22 expression
B3: VHH-E9 SS-free (VHH, not shown: small tags and cut ends)
VHH: DVQLQVSGGGSVQPGGSLRLSSAASGFTFSNYAMYWLRQAPGKGIEWVSRIGPGGSHTEYADSVKGRFTISRDNAKNTLSLQMNSLKPEDTAVYYSAITQQGSGRGQGTQVTVSSAAALEHHHHHH
notes: VHH-E9 in which the disulfide-forming cysteines Cys 22 and Cys 96 were replaced by serine by site-directed mutagenesis; also called cysteine-free derivative of VHH-E9
B4: VHH-A10 (VHH)
VHH: B3 VHH with Q5R, V6A, S11L, S22C, S96C, G108E
notes: Alpaca VHH selected by ribosome display against human GFAP; expressed in E. coli periplasm from pET22 with a His-tag and purified by IMAC; also called anti-GFAP VHH-A10; not shown: His-tag from pET22 expression

Columns and labels:
[1] = target: T1, GFAP (glial fibrillary acidic protein) from normal human brain (human, UniProt P14136 1-432); assay: competition ELISA (Friguet method) after heating VHH at 75 C for 15 min and cooling at 4 C for 20 min
T1 construct: Purchased protein purified from human brain; coated on ELISA plates and used in solution for the KD determination; also called hGFAP
Experimental: (§1) The binding affinity of VHHs was determined as described by Friguet et al., 1985. Briefly, various concentrations of GFAP were incubated in solution overnight at 4° C. with a known quantity of VHH until equilibrium was reached. The VHH concentration had been determined by preliminary ELISA calibrations. 100 μl of solution was transferred to a well of a microtiter plate previously coated with GFAP and was incubated for 20 min at 4° C. The plates were washed with PBS-Tween 0.1%. VHHs were detected with rabbit anti-His tag antibodies (eBiosciences, San Diego, Calif.) followed by adding β-galactosidase-conjugated goat anti-rabbit Igs (Biosys, Compiègne, France) and 4-methylumbelliferyl β-D galactoside (Sigma Aldrich, Saint-Quentin Fallavier, France). Fluorescence was read at 460 nm, after excitation at 355 nm. KD was estimated from the slope of the regression curve obtained by plotting the reciprocal of the fraction of bound antibody versus the reciprocal of the molar concentration of antigen.
The heat denaturation of VHH-E9 was adapted to the method described in Olichon et al., 2007. VHHs are re-suspended in PBS/NaCl 300 mM and are heated for 15 minutes at 75° C. then cooled down at 4° C. for 20 minutes. The binding affinity of VHHs was determined by ELISA as described in Example 2 above.

[2] = target: T1, GFAP (glial fibrillary acidic protein) …; assay: competition ELISA in solution (Friguet method), GFAP in solution, GFAP-coated plate
Experimental: as §1

[3] = target: T2, murine GFAP (in murine brain extracts and mouse brain astrocytes) (murine, UniProt P03995 1-430); assay: Western blot of murine brain extracts
T2 construct: Endogenous intracellular protein; identified on blots by the 46 kDa band size and in tissue by astrocyte labelling; also called 46 Kda band
Experimental: Murine brain proteins (300 mg) were extracted in a potter with 600 μl of NuPage LDS sample buffer (Invitrogen) and kept for […] at 70° C. An aliquot was diluted 1:10 (v/v) with the same sample buffer then treated at 70° C. for 10 min. Following separation by polyacrylamide gel electrophoresis (PAGE) using NuPAGE Novex 4-12% Bis-tris gel (Invitrogen), semi-dry transfer onto Hybond-C (Amersham) and western blotting were carried out using the Xcell II blot module (Invitrogen). Prior to the immunochemical reaction, membranes were blocked in a 4% skimmed milk solution. […] Finally, peroxidase activity was visualized using a chemiluminescent kit (Amersham).
The specificity of the different VHHs was tested by ELISA and by Western blot. All the VHHs were specific for GFAP by ELISA (FIG. 5) and could detect at least 40 ng of protein.

[4] = target: T1, GFAP (glial fibrillary acidic protein) …; assay: competition ELISA (Friguet method), GFAP

T1 sequence (P14136 whole entry): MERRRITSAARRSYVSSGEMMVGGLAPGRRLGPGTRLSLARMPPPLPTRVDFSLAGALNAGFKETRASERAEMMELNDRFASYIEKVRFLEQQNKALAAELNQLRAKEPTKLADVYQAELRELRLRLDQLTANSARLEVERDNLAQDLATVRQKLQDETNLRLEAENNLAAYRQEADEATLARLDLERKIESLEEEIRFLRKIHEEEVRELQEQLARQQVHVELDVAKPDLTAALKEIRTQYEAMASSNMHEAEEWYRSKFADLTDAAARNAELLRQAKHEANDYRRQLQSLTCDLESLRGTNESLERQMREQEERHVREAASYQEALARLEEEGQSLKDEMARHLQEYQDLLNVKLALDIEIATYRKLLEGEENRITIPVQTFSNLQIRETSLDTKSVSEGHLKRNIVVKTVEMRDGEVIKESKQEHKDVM
T2 sequence (P03995 whole entry): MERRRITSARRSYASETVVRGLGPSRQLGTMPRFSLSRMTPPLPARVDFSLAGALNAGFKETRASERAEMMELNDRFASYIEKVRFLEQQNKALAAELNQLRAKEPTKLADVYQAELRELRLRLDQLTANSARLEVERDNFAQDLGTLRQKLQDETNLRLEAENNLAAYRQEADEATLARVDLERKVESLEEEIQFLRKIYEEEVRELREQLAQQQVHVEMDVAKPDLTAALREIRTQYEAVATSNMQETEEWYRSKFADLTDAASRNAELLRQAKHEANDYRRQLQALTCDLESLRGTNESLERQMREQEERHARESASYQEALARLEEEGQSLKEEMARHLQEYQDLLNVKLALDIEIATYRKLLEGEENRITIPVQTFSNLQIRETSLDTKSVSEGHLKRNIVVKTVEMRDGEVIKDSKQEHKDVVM

Row | Binder | Kd [1] [nM] | Kd [2] [nM] | binding result [3] | Kd [4] [nM] | fold reduction of affinity against native VHH-E9 [4] [fold]
1 | B1 | 3.8 | 5.6 | binds |  | 
2 | B2 |  |  | binds |  | 
3 | B3 |  |  |  | 12 | 2
4 | B4 |  | 3.1 | binds |  | 
